Measured values as given in US20160222130A1 (Astellas, published 2016).

Legend:
Human Tie2 (1-452)r3-Fc = biological target: T1, Human Tie2 (1-452)r3-Fc (human, UniProt Q02763 23-452); assay: ELISA; Tie2-Fc coated at 1 ug/mL; signal at 100 ng/mL antibody vs convergence value on the parent
T1 construct: range 1-452
Experimental: (§1) The next day, the immobilized solution was removed, and the plate was washed with a TBS-T solution, and incubated for 60 minutes by the addition of 50 μL of a Blocker™ Casein in TBS (Thermo Fisher Scientific Inc., 37532) to perform blocking. The resultant was washed with a TBS-T solution, and TIE-1-Igγ1-LALA, diluted with 0.05% Tween 20 (Nacalai Tesque Inc., 28353-85)—containing Blocker™ Casein in TBS from 0.03 ng/mL to 100 ng/mL through eight steps, was added thereto in the amount of 20 μL per well. The resultant was incubated at room temperature for 90 minutes and then washed with a TBS-T solution three times, and 20 μL of a biotin-labeled anti-human kappa light chain antibody, which had been diluted to 0.1 μg/mL with 0.05% Tween 20-containing Blocker™ Casein in TBS, was added thereto. The resultant was incubated at room temperature for 60 minutes and then washed with a TBS-T solution three times, and 20 μL of alkaline phosphatase-labeled streptavidin, which had been diluted to 0.1 μg/mL with 0.05% Tween 20-containing Blocker™ Casein in TBS, was added thereto. The resultant was incubated at room temperature for 60 minutes and then washed with a TBS-T solution three times, and 50 μL of Chemiluminescent Ultra Sensitive AP Microwell and/or Membrane Substrate (450 nm), which had been 5-fold diluted with 1 mM MgCl₂-containing 20 mM TBS (pH 9.8) as a substrate, was added thereto. The resultant was incubated at room temperature under light-shielding for 40 minutes, and then luminescent intensity thereof was measured with an EnVision™ multi-label counter. The EC₅₀ value of TIE-1-Igγ1-LALA with respect to the human Tie2 (1-452)-Fc chimeric protein and 23 mutant proteins thereof were calculated. The relative value of luminescent intensity of 100 ng/mL TIE-1-Igγ1-LALA as maximum concentration point with respect to human Tie2 (1-452)-Fc chimeric protein and 23 mutant proteins thereof when the convergence value of the sigmoid curve of TIE-1-Igγ1-LALA binding to the human Tie2 (1-452)-Fc chimeric protein which was taken as 100% was calculated (Table 8 and Table 9). Further, the EC₅₀ value and the convergence value were calculated by Sigmoid-Emax model non-linear regression analysis.

Human Tie2 (1-452)r7-Fc [1] = biological target: T2, Human Tie2 (1-452)r7-Fc (human, UniProt Q02763 23-452); assay: as above
T2 construct: range 1-452
T2 sequence (Q02763 other isoform, or with tags, fused parts or gaps limits assumed, form in doubt): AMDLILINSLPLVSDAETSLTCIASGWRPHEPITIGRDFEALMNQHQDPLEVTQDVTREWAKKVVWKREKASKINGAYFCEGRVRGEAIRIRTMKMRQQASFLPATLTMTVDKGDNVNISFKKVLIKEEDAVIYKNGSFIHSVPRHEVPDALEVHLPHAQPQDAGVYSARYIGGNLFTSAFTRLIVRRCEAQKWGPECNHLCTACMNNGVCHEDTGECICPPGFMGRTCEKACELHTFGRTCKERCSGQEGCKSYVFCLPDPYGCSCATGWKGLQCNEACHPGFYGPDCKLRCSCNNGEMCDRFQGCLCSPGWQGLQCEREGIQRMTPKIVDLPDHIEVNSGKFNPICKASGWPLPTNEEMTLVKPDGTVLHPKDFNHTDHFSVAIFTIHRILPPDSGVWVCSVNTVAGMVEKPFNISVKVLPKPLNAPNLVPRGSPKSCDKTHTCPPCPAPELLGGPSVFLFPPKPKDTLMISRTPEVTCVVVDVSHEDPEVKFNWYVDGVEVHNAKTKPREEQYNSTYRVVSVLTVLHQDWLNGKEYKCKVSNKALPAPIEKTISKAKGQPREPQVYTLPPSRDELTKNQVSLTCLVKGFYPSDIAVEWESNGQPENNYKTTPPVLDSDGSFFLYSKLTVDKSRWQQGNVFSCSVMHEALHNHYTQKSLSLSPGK
Experimental: as §1

Human Tie2 (1-452)r1-Fc = biological target: T3, Human Tie2 (1-452)r1-Fc (human, UniProt Q02763 23-452); assay: as above
T3 construct: range 1-452
Experimental: as §1

Human Tie2 (1-452)c1-Fc = biological target: T4, Human Tie2 (1-452)c1-Fc (human, UniProt Q02763 23-452); assay: as above
T4 construct: range 1-452
T4 sequence (Q02763 other isoform, or with tags, fused parts or gaps limits assumed, form in doubt): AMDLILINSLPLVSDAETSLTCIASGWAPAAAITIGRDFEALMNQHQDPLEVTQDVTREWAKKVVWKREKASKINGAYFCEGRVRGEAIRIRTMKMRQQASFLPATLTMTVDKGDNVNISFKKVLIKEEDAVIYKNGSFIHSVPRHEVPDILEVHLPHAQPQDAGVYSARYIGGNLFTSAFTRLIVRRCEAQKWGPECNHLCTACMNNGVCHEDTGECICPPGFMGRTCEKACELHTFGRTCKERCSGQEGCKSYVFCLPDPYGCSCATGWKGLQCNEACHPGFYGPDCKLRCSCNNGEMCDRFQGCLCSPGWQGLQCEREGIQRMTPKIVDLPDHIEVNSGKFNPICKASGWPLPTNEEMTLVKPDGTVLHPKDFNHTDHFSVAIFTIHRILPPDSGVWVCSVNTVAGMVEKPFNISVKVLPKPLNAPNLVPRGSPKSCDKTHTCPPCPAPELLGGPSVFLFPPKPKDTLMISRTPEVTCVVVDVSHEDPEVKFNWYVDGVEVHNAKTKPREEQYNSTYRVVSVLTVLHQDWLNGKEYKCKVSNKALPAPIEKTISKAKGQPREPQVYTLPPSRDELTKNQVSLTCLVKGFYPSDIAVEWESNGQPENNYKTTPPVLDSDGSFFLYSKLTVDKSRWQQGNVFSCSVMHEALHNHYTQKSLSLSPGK
Experimental: as §1

[2] = biological target: T5, human Tie2 (1-452)-Fc chimeric protein (human, UniProt Q02763 23-452); assay: as above
T5 construct: range 1-452; The stated range 1-452 begins at residue 1 of the precursor
Experimental: as §1

Human Tie2 (1-452)g4-Fc = biological target: T6, Human Tie2 (1-452)g4-Fc (human, UniProt Q02763 23-452); assay: as above
T6 construct: range 1-452
Experimental: as §1

Human Tie2 (1-452)r6-Fc = biological target: T7, Human Tie2 (1-452)r6-Fc (human, UniProt Q02763 23-452); assay: as above
T7 construct: range 1-452
Experimental: as §1

Human Tie2 (1-452)g1-Fc = biological target: T8, Human Tie2 (1-452)g1-Fc (human, UniProt Q02763 23-452); assay: as above
T8 construct: range 1-452
Experimental: as §1

Human Tie2 (1-452)g5-Fc = biological target: T9, Human Tie2 (1-452)g5-Fc (human, UniProt Q02763 23-452); assay: as above
T9 construct: range 1-452
T9 sequence (Q02763 other isoform, or with tags, fused parts or gaps limits assumed, form in doubt): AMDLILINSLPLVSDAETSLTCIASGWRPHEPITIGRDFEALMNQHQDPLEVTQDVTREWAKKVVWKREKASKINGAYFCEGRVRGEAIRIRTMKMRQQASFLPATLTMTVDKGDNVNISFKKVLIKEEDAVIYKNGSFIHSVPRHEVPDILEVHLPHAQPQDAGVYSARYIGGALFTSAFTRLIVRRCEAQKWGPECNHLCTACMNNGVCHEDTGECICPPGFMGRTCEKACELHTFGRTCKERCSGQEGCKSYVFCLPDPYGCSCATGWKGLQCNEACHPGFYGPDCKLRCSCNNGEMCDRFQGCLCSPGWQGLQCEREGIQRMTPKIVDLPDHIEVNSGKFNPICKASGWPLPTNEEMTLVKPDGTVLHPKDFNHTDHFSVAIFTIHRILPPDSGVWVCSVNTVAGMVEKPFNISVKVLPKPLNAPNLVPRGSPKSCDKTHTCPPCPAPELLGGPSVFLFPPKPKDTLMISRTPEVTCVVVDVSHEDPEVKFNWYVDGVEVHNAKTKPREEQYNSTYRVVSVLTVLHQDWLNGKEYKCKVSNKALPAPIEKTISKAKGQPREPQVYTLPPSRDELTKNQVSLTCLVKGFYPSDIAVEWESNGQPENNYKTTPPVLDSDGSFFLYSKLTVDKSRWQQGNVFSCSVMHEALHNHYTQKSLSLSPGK
Experimental: as §1

Human Tie2 (1-452)m3-Fc = biological target: T10, Human Tie2 (1-452)m3-Fc (human, UniProt Q02763 23-452); assay: as above
T10 construct: range 1-452
T10 sequence (Q02763 other isoform, or with tags, fused parts or gaps limits assumed, form in doubt): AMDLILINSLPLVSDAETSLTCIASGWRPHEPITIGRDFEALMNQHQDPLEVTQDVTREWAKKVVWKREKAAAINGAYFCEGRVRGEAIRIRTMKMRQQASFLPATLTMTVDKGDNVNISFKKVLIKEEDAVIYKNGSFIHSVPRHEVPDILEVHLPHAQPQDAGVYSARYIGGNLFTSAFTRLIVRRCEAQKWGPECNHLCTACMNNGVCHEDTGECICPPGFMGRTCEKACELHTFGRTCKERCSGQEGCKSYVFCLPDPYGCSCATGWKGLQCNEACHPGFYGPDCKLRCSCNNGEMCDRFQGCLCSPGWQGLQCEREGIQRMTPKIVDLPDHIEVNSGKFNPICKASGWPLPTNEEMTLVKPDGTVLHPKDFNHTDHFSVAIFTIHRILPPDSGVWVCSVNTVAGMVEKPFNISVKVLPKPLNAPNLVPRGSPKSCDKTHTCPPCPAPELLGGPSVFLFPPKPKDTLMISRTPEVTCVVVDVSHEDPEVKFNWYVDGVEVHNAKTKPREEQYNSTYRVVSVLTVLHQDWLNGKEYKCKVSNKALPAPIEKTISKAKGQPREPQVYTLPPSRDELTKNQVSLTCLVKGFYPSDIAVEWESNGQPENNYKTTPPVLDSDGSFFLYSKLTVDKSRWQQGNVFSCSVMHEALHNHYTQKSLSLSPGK
Experimental: as §1

Human Tie2 (1-452)g2-Fc = biological target: T11, Human Tie2 (1-452)g2-Fc (human, UniProt Q02763 23-452); assay: as above
T11 construct: range 1-452
Experimental: as §1

Human Tie2 (1-452)y1-Fc = biological target: T12, Human Tie2 (1-452)y1-Fc (human, UniProt Q02763 23-452); assay: as above
T12 construct: range 1-452
Experimental: as §1

Human Tie2 (1-452)g3-Fc = biological target: T13, Human Tie2 (1-452)g3-Fc (human, UniProt Q02763 23-452); assay: as above
T13 construct: range 1-452
T13 sequence (Q02763 other isoform, or with tags, fused parts or gaps limits assumed, form in doubt): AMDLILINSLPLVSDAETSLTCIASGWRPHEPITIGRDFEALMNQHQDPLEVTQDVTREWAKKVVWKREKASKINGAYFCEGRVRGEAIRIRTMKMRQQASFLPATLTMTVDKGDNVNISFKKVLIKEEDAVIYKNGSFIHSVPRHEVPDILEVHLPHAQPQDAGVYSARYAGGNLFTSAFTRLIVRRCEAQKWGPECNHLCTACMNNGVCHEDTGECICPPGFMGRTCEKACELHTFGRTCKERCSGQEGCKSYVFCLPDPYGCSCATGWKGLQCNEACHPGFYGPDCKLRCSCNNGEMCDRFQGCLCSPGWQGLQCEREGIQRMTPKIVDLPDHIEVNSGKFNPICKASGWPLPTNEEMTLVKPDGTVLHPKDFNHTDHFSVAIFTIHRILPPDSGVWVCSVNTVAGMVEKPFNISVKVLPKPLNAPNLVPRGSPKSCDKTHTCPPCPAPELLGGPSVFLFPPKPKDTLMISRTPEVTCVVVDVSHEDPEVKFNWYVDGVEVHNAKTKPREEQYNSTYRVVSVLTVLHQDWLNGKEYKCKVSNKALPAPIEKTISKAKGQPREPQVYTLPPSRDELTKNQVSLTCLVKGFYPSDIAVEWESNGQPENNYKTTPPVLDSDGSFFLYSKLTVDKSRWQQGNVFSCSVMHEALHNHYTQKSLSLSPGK
Experimental: as §1

Human Tie2 (1-452)m1-Fc [3] = biological target: T14, Human Tie2 (1-452)m1-Fc (human, UniProt Q02763 23-452); assay: as above
T14 construct: range 1-452
T14 sequence (Q02763 other isoform, or with tags, fused parts or gaps limits assumed, form in doubt): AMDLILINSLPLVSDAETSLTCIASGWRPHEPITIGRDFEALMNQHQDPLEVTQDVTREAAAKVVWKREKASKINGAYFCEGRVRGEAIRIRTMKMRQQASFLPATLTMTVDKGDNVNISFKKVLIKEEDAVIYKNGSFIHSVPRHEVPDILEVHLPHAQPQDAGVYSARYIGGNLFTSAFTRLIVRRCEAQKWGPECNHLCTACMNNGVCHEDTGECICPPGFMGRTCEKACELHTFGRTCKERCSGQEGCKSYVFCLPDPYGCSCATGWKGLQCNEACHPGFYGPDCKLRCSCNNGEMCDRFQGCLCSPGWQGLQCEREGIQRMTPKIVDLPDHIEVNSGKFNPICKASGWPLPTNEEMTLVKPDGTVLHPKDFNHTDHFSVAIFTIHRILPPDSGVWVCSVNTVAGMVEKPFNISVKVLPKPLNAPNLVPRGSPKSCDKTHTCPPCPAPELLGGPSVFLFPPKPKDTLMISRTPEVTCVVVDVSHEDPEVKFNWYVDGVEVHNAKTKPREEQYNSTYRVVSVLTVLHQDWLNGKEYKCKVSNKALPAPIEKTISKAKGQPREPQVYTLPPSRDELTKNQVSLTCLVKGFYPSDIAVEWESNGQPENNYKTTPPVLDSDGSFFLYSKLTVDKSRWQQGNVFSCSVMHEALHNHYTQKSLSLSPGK
Experimental: as §1

Human Tie2 (1-452)g6-Fc = biological target: T15, Human Tie2 (1-452)g6-Fc (human, UniProt Q02763 23-452); assay: as above
T15 construct: range 1-452
Experimental: as §1

Human Tie2 (1-452)r7-Fc [4] = biological target: T2, Human Tie2 (1-452)r7-Fc; assay: ELISA; Tie2-Fc coated at 1 ug/mL, chemiluminescence
Experimental: as §1

Human Tie2 (1-452)m1-Fc [5] = biological target: T14, Human Tie2 (1-452)m1-Fc; assay: as above
Experimental: as §1

Relative value (%) of luminescent intensity (Human Tie2 (1-452)r3-Fc): 102% | Relative value (%) of luminescent intensity (Human Tie2 (1-452)r7-Fc [1]): 100% | Relative value (%) of luminescent intensity (Human Tie2 (1-452)r1-Fc): 97% | Relative value (%) of luminescent intensity (Human Tie2 (1-452)c1-Fc): 104% | Relative value (%) of luminescent intensity [2]: 97% | Relative value (%) of luminescent intensity (Human Tie2 (1-452)g4-Fc): 53% | Relative value (%) of luminescent intensity (Human Tie2 (1-452)r6-Fc): 100% | Relative value (%) of luminescent intensity (Human Tie2 (1-452)g1-Fc): 3% | Relative value (%) of luminescent intensity (Human Tie2 (1-452)g5-Fc): 91% | Relative value (%) of luminescent intensity (Human Tie2 (1-452)m3-Fc): 103% | Relative value (%) of luminescent intensity (Human Tie2 (1-452)g2-Fc): 72% | Relative value (%) of luminescent intensity (Human Tie2 (1-452)y1-Fc): 109% | Relative value (%) of luminescent intensity (Human Tie2 (1-452)g3-Fc): 96% | Relative value (%) of luminescent intensity (Human Tie2 (1-452)m1-Fc [3]): 104% | Relative value (%) of luminescent intensity (Human Tie2 (1-452)g6-Fc): 105% | EC50 (Human Tie2 (1-452)r7-Fc [4]): 1.1 ng/mL | EC50 (Human Tie2 (1-452)m1-Fc [5]): 1 ng/mL
B1: TIE-1-Igγ1-LALA (antibody, human IgG1, kappa, L234A L235A)
heavy: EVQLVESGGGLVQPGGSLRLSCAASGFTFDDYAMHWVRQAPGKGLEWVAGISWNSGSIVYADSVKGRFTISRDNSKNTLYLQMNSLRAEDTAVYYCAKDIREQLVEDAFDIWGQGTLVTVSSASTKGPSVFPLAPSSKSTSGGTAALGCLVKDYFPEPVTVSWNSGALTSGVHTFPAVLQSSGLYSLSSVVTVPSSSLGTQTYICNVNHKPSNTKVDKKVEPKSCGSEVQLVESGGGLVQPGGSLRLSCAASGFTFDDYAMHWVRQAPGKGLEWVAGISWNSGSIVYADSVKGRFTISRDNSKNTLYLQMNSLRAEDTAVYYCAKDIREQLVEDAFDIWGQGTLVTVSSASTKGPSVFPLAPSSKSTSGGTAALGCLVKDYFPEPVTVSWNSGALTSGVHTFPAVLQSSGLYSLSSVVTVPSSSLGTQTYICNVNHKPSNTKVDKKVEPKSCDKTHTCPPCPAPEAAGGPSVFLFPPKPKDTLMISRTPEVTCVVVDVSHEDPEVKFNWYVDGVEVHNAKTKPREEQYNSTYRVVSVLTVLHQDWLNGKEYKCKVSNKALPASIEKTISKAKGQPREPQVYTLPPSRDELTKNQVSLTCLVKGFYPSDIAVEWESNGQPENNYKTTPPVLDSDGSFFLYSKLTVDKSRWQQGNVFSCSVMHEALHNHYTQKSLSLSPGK
light: DIQMTQSPSSLSASVGDRVTITCRSSQSLLHSHRYNYLDWYQQKPGKAPKLLIYLGSNRASGVPSRFSGSGSGTDFTLTISSVQPEDFATYYCMQTLQTPLTFGQGTKVEIKRTVAAPSVFIFPPSDEQLKSGTASVVCLLNNFYPREAKVQWKVDNALQSGNSQESVTEQDSKDSTYSLSSTLTLSKADYEKHKVYACEVTHQGLSSPVTKSFNRGEC
notes: Tandem tetravalent format: two heavy chains (VH-CH1-linker-VH-CH1-CH2-CH3) and four light chains; also called tetravalent anti-human Tie2 antibody with L234A, L235A and P331S
